Experimental data: patent US20130209439A1, “INHIBITORS OF PDE4 BINDING TO HSP20” (THE UNIVERSITY COURT OF THE UNIVERSITY OF GLASGOW, priority 2010, published 2013)
Where no end group is shown, it is not given here.

What was measured:
His-HSP20 / GST-PDE4D5 = molecular target: T1, His-HSP20 / GST-PDE4D5 (Homo sapiens, UniProt O14558); assay: Hsp20/PDE4D5 ELISA assay with purified proteins; format: binding; details: increasing amounts of peptide
T1 construct: made in house; host or cells: E. coli (BL21 for His-Hsp20)
T1 sequence (O14558 1-160): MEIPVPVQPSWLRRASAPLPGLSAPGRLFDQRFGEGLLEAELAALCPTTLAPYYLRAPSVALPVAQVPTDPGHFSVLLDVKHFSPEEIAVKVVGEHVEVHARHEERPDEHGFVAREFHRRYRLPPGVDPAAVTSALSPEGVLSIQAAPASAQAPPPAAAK
Description: FIG. 6. Peptide disruption of the PDE4D-HSP20 complex promotes PKA phosphorylation on Ser16. A, Upper panel. HEK293 cells were transfected with HSP20 and PDE4D5. Immunoprecipitation of HSP20 done in the presence increasing concentrations of Peptide 906 (SEQ ID NO: 36) and Peptide control (SEQ ID NO: 37) were probed for PDE4D5. Lower panel. Densitometric analysis of amount of PDE4D5 in HSP20 immunoprecipitates normalised to expression level. Data representative of n=3. B, Purified preparations of HSP20-His and PDE4D5-GST were subject to an ELISA assay containing increasing amounts of ‘Peptide 906’ and ‘peptide control’. C, Upper panel, HSP20 was transfected into HEK293 cells and treated with ‘Peptide 906’ for indicated times. Cellular lysates were blotted for HSP20 and phospho-HSP20. Middle panel, HSP20 was transfected into HEK293 cells and treated with ‘Peptide 906’ or ‘peptide control’ for indicated times. Cellular lysates were blotted for HSP20 and phospho-HSP20. Lower panel, Densitometric analysis of phosphorylation of HSP20 normalised to expression level (n=3).
His-HSP20 and GST-PDE4D5 were purified as previously described. […] Plates were read as soon as possible using the luminescence program on a Packard Fusion plate reader (1 s reading per well). […]

[1] = tested on: neonatal cardiac myocytes; assay: Cardiac myocyte size by xCELLigence impedance (normalised cell index); format: cell-based, rat; details: 24 hour isoprenaline 10 μM, 30 min pre-treatment with 10 μM peptide
Procedure: FIG. 7. Peptide disruption of the PDE4D-HSP20 complex attenuates the hypertrophic response triggered by constant […]-agonist treatment. A, Upper panel. The area covered by isolated cardiac myocytes was used as a measure of cell size. Lower panel, Graphical depiction of the mean areas (N=100) of cells following 24 hours of indicated treatments. B, impedance measurements were used to calculate continuous normalised cell index using exCELLigence technology Normalised mean (n=4) cell index after 24 hours of indicated treatments.
The E-Plate 96 (Roche) was used for these experiments^45. This comprises a 96-well plate with integral sensor electrode arrays to measure cell impedance. […] E-plate 96 is a 96-well microtiter plate with incorporated gold cell sensor arrays in the bottom, which allows impedance inside each well to be monitored and assayed in real time. […] The impedance measured between electrodes in an individual well depends on electrode geometry, ion concentration in the well and whether or not cells are attached to the electrodes^45. In the absence of cells, electrode impedance is mainly determined by the ion environment both at the electrode/solution interface and in the bulk solution. […] Small changes in impedance can also be recorded when cells temporally change shape or size in response to agonists^46,57. […]

Question: Which results are given for “Peptide 906: stearoylated, cell-permeable disrupter peptide of PDE4D5 residues E468-K492 (SEQ ID NO: 36) (ENHHLAVGFKLLQEENSDIFQNLTK; also: stearoylated, site not given here)”?
Answer: association between PDE4D5 and HSP20 in ELISA with purified proteins (His-HSP20 / GST-PDE4D5): attenuated the association between PDE4D5 and HSP20; cell size (normalised cell index, impedance) of cardiac myocytes [1]: could be rescued
